Each block holds one binder with its values, some of them ahead of it.
Key:
[1] = target: T1, His6-Ras1.G17V (1-172), GTP-loaded (fission yeast (Schizosaccharomyces …, UniProt P08647 1-172, G17V)); test: pull-down; GST fusion on glutathione sepharose beads incubated with GTP-loaded Ras1.G17V (1-172) in buffer A (20 mM Tris-Cl pH 7.5, 100 mM NaCl, 5 mM MgCl2, 1 mM beta-mercaptoethanol), 4 C, 30 min; bound fraction on SDS-PAGE, InstantBlue stain; conditions: both partners purified
T1 construct: Loaded with GTP by EDTA-mediated exchange (8 mM GTP, 12 mM EDTA, 37 C, 10 min; stopped with 20.5 mM MgCl2) just before the pull-down; Cloned in vector pLEICS1; also called Ras1.G17V^GTP; source: E. coli BL21 Rosetta, purified (Ni Sepharose 6 Fast Flow), dialysed, loaded with GTP
T1 sequence (looked up): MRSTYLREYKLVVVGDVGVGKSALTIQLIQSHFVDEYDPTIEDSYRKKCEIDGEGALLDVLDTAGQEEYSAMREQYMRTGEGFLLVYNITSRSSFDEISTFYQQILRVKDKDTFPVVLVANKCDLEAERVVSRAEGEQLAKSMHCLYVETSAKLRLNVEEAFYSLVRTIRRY

[2] = target: T1, His6-Ras1.G17V (1-172), GTP-loaded; test: pull-down; competition: GST-Byr2 (65-180) on glutathione beads incubated with GTP-loaded Ras1.G17V (1-172) with or without Scd1 (760-872) fragment, buffer A, 4 C, 30 min; Ras1.G17V band on SDS-PAGE quantified with Fiji; conditions: both partners purified

binding result [1]: binds
B1: GST-Scd1 (760-872) (domain or fragment, UniProt P40995 760-872, looked up)
chain: SSSTSTSLSVRNTTNVKIRLRLHEVSLVLVVAHDITFDELLAKVEHKIKLCGILKQAVPFRVRLKYVDEDGDFITITSDEDVLMAFETCTFELMDPVHNKGMDTVSLHVVVYF
notes: Cloned in vector pLEICS4; also called GST-Scd1-PB1; Scd1-PB1; source: E. coli BL21 Rosetta, purified on glutathione sepharose 4B (kept on the beads); not shown: GST, N-terminal, kept

binding result [2]: binds
B2: Scd1 (760-872) fragment (domain or fragment, UniProt P40995 760-872, looked up)
chain: B1 chain
notes: also called Scd1-PB1 (cleaved from GST); not shown: GST, N-terminal, cleaved

binding result [1]: binds
B3: GST-Byr2 (65-180) (domain or fragment, UniProt P28829 65-180, looked up)
chain: REFPRPCILRFIACNGQTRAVQSRGDYQKTLAIALKKFSLEDASKFIVCVSQSSRIKLITEEEFKQICFNSSSPERDRLIIVPKEKPCPSFEDLRRSWEIELAQPAALSSQSSLSP
notes: Cloned in vector pLEICS4; also called GST-Byr2-RBD; Byr2-RBD; source: E. coli BL21 Rosetta, purified on glutathione sepharose 4B (kept on the beads); not shown: GST, N-terminal, kept
